In article PMC10786891, “Massively parallel profiling of RNA-targeting CRISPR-Cas13d”:

T1: EsCas13d, nuclease-dead (Eubacterium siraeum, UniProt B0MS50, R295A;H300A;R849A;H854A)
T1 sequence: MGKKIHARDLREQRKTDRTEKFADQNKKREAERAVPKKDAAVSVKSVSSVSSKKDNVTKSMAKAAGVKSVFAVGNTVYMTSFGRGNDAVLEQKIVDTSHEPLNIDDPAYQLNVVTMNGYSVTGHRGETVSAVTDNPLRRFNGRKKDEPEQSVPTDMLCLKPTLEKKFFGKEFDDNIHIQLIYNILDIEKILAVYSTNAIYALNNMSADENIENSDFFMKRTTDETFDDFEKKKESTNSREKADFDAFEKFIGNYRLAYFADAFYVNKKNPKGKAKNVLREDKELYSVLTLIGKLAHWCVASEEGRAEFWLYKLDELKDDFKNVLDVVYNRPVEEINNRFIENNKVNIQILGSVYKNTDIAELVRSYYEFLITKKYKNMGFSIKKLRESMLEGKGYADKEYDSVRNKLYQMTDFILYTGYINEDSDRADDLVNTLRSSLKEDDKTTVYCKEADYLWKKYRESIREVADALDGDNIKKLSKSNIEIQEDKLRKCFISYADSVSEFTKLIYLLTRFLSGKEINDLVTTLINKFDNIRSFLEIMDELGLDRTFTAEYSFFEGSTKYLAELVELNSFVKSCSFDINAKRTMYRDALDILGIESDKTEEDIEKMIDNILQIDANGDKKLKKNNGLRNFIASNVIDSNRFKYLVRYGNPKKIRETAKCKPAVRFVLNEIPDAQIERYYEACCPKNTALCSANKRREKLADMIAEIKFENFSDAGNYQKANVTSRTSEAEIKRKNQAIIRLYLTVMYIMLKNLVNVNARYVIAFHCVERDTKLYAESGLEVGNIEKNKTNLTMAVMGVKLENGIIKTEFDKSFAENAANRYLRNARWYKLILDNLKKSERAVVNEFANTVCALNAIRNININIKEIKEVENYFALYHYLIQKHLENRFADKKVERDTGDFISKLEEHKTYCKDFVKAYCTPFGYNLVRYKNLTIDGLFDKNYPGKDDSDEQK


The binders below were run against T1, EsCas13d, nuclease-dead (assay: crRNA (strand 1, pre-loaded); Mg2+; 40 mM Tris-HCl pH 7.5, 150 mM NaCl, 6 mM MgCl2, 1 mM DTT, 0.1% Tween-20, 0.2 mg/ml BSA; 25 C; 10 min per concentration, then washed). Conditions: tags: His6-TwinStrep-SUMO cleaved; N-terminal SNAP kept (SNAP-Surface 488); label: 3' end held by stalled T7 RNA polymerase.

| Binder | Kd |
| --- | --- |
| target 2 MT 5'PFS GCC 3'PFS CAG (mixed) RNA 1: CACCCGUGCAAAAUUGCAGGGGUCUAAAACCUUCUCCAAAUUGUUUCAUCCU RNA 2: GGGAAUGGAUCCACAUCUACGAAUUCGCCAGGAUGAAACAAUUUGGAGAAGCAGAGAUCGGAAGAGCACACGU | 9.4 ± 0.8 nM |
| target 2 MT 5'PFS GCC 3'PFS CAC (mixed) RNA 1: CACCCGUGCAAAAUUGCAGGGGUCUAAAACCUUCUCCAAAUUGUUUCAUCCU RNA 2: GGGAAUGGAUCCACAUCUACGAAUUCGCCAGGAUGAAACAAUUUGGAGAAGCACAGAUCGGAAGAGCACACGU | 13 ± 1.7 nM |
| target 2 MT 5'PFS GCC 3'PFS CAA (mixed) RNA 1: CACCCGUGCAAAAUUGCAGGGGUCUAAAACCUUCUCCAAAUUGUUUCAUCCU RNA 2: GGGAAUGGAUCCACAUCUACGAAUUCGCCAGGAUGAAACAAUUUGGAGAAGCAAAGAUCGGAAGAGCACACGU | ~27 nM |
| target 2 MT 5'PFS GUC 3'PFS AAG (mixed) RNA 1: CACCCGUGCAAAAUUGCAGGGGUCUAAAACCUUCUCCAAAUUGUUUCAUCCU RNA 2: GGGAAUGGAUCCACAUCUACGAAUUCGUCAGGAUGAAACAAUUUGGAGAAGAAGAGAUCGGAAGAGCACACGU | 16.8 ± 3.5 nM |
| target 2 MT 5'PFS GUC 3'PFS AAC (mixed) RNA 1: CACCCGUGCAAAAUUGCAGGGGUCUAAAACCUUCUCCAAAUUGUUUCAUCCU RNA 2: GGGAAUGGAUCCACAUCUACGAAUUCGUCAGGAUGAAACAAUUUGGAGAAGAACAGAUCGGAAGAGCACACGU | 9.7 ± 1.5 nM |
| target 2 MT 5'PFS GUC 3'PFS AAA (mixed) RNA 1: CACCCGUGCAAAAUUGCAGGGGUCUAAAACCUUCUCCAAAUUGUUUCAUCCU RNA 2: GGGAAUGGAUCCACAUCUACGAAUUCGUCAGGAUGAAACAAUUUGGAGAAGAAAAGAUCGGAAGAGCACACGU | 8.8 ± 1.5 nM |
| target 2 MT 5'PFS UAA 3'PFS CAU (mixed) RNA 1: CACCCGUGCAAAAUUGCAGGGGUCUAAAACCUUCUCCAAAUUGUUUCAUCCU RNA 2: GGGAAUGGAUCCACAUCUACGAAUUCUAAAGGAUGAAACAAUUUGGAGAAGCAUAGAUCGGAAGAGCACACGU | 4.9 ± 0.8 nM |
| target 2 MT 5'PFS GUC 3'PFS AAU (mixed) RNA 1: CACCCGUGCAAAAUUGCAGGGGUCUAAAACCUUCUCCAAAUUGUUUCAUCCU RNA 2: GGGAAUGGAUCCACAUCUACGAAUUCGUCAGGAUGAAACAAUUUGGAGAAGAAUAGAUCGGAAGAGCACACGU | 12.8 ± 2.8 nM |
| target 2 MT 5'PFS UAA 3'PFS CAC (mixed) RNA 1: CACCCGUGCAAAAUUGCAGGGGUCUAAAACCUUCUCCAAAUUGUUUCAUCCU RNA 2: GGGAAUGGAUCCACAUCUACGAAUUCUAAAGGAUGAAACAAUUUGGAGAAGCACAGAUCGGAAGAGCACACGU | 5.6 ± 1.8 nM |
| target 2 MT 5'PFS UAA 3'PFS CAA (mixed) RNA 1: CACCCGUGCAAAAUUGCAGGGGUCUAAAACCUUCUCCAAAUUGUUUCAUCCU RNA 2: GGGAAUGGAUCCACAUCUACGAAUUCUAAAGGAUGAAACAAUUUGGAGAAGCAAAGAUCGGAAGAGCACACGU | 2.4 ± 0.4 nM |
| target 1 C2A,U8A (mixed) RNA 1: CACCCGUGCAAAAAUGCAGGGGUCUAAAACUGAGCGGAUAACCUCUCUAUGG RNA 2: GGGAAUGGAUCCACAUCUACGAAUUCGUACCAUAGAGAGGUUAACCGCUAACCGAGAUCGGAAGAGCACACGU | 19.7 ± 0.8 nM |
| target 2 MT 5'PFS UCG 3'PFS AAU (mixed) RNA 1: CACCCGUGCAAAAUUGCAGGGGUCUAAAACCUUCUCCAAAUUGUUUCAUCCU RNA 2: GGGAAUGGAUCCACAUCUACGAAUUCUCGAGGAUGAAACAAUUUGGAGAAGAAUAGAUCGGAAGAGCACACGU | ~24 nM |
| target 2 MT 5'PFS GAG 3'PFS UCA (mixed) RNA 1: CACCCGUGCAAAAUUGCAGGGGUCUAAAACCUUCUCCAAAUUGUUUCAUCCU RNA 2: GGGAAUGGAUCCACAUCUACGAAUUCGAGAGGAUGAAACAAUUUGGAGAAGUCAAGAUCGGAAGAGCACACGU | 8 ± 0.8 nM |
| target 2 MT 5'PFS GAG 3'PFS UCC (mixed) RNA 1: CACCCGUGCAAAAUUGCAGGGGUCUAAAACCUUCUCCAAAUUGUUUCAUCCU RNA 2: GGGAAUGGAUCCACAUCUACGAAUUCGAGAGGAUGAAACAAUUUGGAGAAGUCCAGAUCGGAAGAGCACACGU | 29 ± 5 nM |
| target 2 MT 5'PFS GAG 3'PFS UCG (mixed) RNA 1: CACCCGUGCAAAAUUGCAGGGGUCUAAAACCUUCUCCAAAUUGUUUCAUCCU RNA 2: GGGAAUGGAUCCACAUCUACGAAUUCGAGAGGAUGAAACAAUUUGGAGAAGUCGAGAUCGGAAGAGCACACGU | 10.7 ± 0.9 nM |
| target 2 MT 5'PFS UUU 3'PFS AUU (mixed) RNA 1: CACCCGUGCAAAAUUGCAGGGGUCUAAAACCUUCUCCAAAUUGUUUCAUCCU RNA 2: GGGAAUGGAUCCACAUCUACGAAUUCUUUAGGAUGAAACAAUUUGGAGAAGAUUAGAUCGGAAGAGCACACGU | 9.1 ± 1 nM |
| target 2 MT 5'PFS AUG 3'PFS ACU (mixed) RNA 1: CACCCGUGCAAAAUUGCAGGGGUCUAAAACCUUCUCCAAAUUGUUUCAUCCU RNA 2: GGGAAUGGAUCCACAUCUACGAAUUCAUGAGGAUGAAACAAUUUGGAGAAGACUAGAUCGGAAGAGCACACGU | 11.6 ± 1.9 nM |
| target 2 MT 5'PFS UGC 3'PFS GGC (mixed) RNA 1: CACCCGUGCAAAAUUGCAGGGGUCUAAAACCUUCUCCAAAUUGUUUCAUCCU RNA 2: GGGAAUGGAUCCACAUCUACGAAUUCUGCAGGAUGAAACAAUUUGGAGAAGGGCAGAUCGGAAGAGCACACGU | 43 ± 10 nM |
| target 2 MT 5'PFS UCG 3'PFS AAG (mixed) RNA 1: CACCCGUGCAAAAUUGCAGGGGUCUAAAACCUUCUCCAAAUUGUUUCAUCCU RNA 2: GGGAAUGGAUCCACAUCUACGAAUUCUCGAGGAUGAAACAAUUUGGAGAAGAAGAGAUCGGAAGAGCACACGU | 32 ± 11 nM |
| target 2 MT 5'PFS GAG 3'PFS UCU (mixed) RNA 1: CACCCGUGCAAAAUUGCAGGGGUCUAAAACCUUCUCCAAAUUGUUUCAUCCU RNA 2: GGGAAUGGAUCCACAUCUACGAAUUCGAGAGGAUGAAACAAUUUGGAGAAGUCUAGAUCGGAAGAGCACACGU | 16 ± 2.2 nM |
| target 2 MT 5'PFS UCG 3'PFS AAA (mixed) RNA 1: CACCCGUGCAAAAUUGCAGGGGUCUAAAACCUUCUCCAAAUUGUUUCAUCCU RNA 2: GGGAAUGGAUCCACAUCUACGAAUUCUCGAGGAUGAAACAAUUUGGAGAAGAAAAGAUCGGAAGAGCACACGU | 16 ± 5 nM |
| target 1 insG 3' of 4,insA 3' of 3 (mixed) RNA 1: CACCCGUGCAAAAAUGCAGGGGUCUAAAACUGAGCGGAUAACCUCUCUAUGG RNA 2: GGGAAUGGAUCCACAUCUACGAAUUCGUACCAUAGAGAGGUUAUCCGCGUACACCGAGAUCGGAAGAGCACACGU | 6.5 ± 0.5 nM |
| target 2 MT 5'PFS UUU 3'PFS AUA (mixed) RNA 1: CACCCGUGCAAAAUUGCAGGGGUCUAAAACCUUCUCCAAAUUGUUUCAUCCU RNA 2: GGGAAUGGAUCCACAUCUACGAAUUCUUUAGGAUGAAACAAUUUGGAGAAGAUAAGAUCGGAAGAGCACACGU | 6.5 ± 0.5 nM |
| target 2 MT 5'PFS AUG 3'PFS ACC (mixed) RNA 1: CACCCGUGCAAAAUUGCAGGGGUCUAAAACCUUCUCCAAAUUGUUUCAUCCU RNA 2: GGGAAUGGAUCCACAUCUACGAAUUCAUGAGGAUGAAACAAUUUGGAGAAGACCAGAUCGGAAGAGCACACGU | 18.8 ± 3.1 nM |
| target 2 MT 5'PFS UUU 3'PFS AUC (mixed) RNA 1: CACCCGUGCAAAAUUGCAGGGGUCUAAAACCUUCUCCAAAUUGUUUCAUCCU RNA 2: GGGAAUGGAUCCACAUCUACGAAUUCUUUAGGAUGAAACAAUUUGGAGAAGAUCAGAUCGGAAGAGCACACGU | 6.9 ± 0.8 nM |
| target 2 MT 5'PFS AUG 3'PFS ACA (mixed) RNA 1: CACCCGUGCAAAAUUGCAGGGGUCUAAAACCUUCUCCAAAUUGUUUCAUCCU RNA 2: GGGAAUGGAUCCACAUCUACGAAUUCAUGAGGAUGAAACAAUUUGGAGAAGACAAGAUCGGAAGAGCACACGU | 13 ± 3.2 nM |
| target 2 MT 5'PFS CAG 3'PFS AUA (mixed) RNA 1: CACCCGUGCAAAAUUGCAGGGGUCUAAAACCUUCUCCAAAUUGUUUCAUCCU RNA 2: GGGAAUGGAUCCACAUCUACGAAUUCCAGAGGAUGAAACAAUUUGGAGAAGAUAAGAUCGGAAGAGCACACGU | 4.5 ± 1 nM |
| target 2 MT 5'PFS UUU 3'PFS AUG (mixed) RNA 1: CACCCGUGCAAAAUUGCAGGGGUCUAAAACCUUCUCCAAAUUGUUUCAUCCU RNA 2: GGGAAUGGAUCCACAUCUACGAAUUCUUUAGGAUGAAACAAUUUGGAGAAGAUGAGAUCGGAAGAGCACACGU | 7.5 ± 0.9 nM |
